How the values were obtained:
Smad2 signaling = assay: Western blot of phospho-Smad2 in inh-KO tumors; format: in vivo, mouse; conditions: inh-KO mice, increase vs WT controls
Description: Protein extracts were prepared from cell cultures or tissues in T-PER tissue protein extraction reagent (Pierce) containing a mixture of protease inhibitors (Roche). A pool of 50 μg total protein for each group containing equal amounts of protein extract isolated from individual animals was separated by NuPAGE 4-12% Bis-Tris gel (Invitrogen) and transferred to PVDF. The membranes were probed with primary antibodies against total Smad2, p-Smad2 or E-cadherin (1:1000; Cell Signaling), endoglin, osteopontin (1:500; R & D Systems), IGFBP-1, IGFBP-2 (1:500; Abcam) followed by HRP-conjugated secondary antibody (1:2000; Cell Signaling). The membranes were stripped and re-probed with antibody against α-tubulin (1:1000; Cell Signaling).

activin-A = molecular target: T1, activin-A (Mus musculus, UniProt Q04998); assay: Serum activin-A ELISA in inh-KO mice with established gonadal tumors; format: in vivo; conditions: single injection 30 mg/kg SC
T1 construct: from tissue; host or cells: serum of inhibin-α knockout (inh-KO) and wild-type mice
T1 sequence (Q04998 309-424): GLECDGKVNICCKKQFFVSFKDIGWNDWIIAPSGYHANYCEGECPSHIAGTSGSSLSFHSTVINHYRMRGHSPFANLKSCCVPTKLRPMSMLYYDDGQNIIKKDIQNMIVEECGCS
Description: Inh-KO mice. 12-week-old female and 8-week-old male inh-KO mice with fully established ovarian or testicular tumors received a single injection of PBS or sActRIIB (30 mg/kg, SC). As a control, age-matched wild-type littermates received a single injection of PBS. Ovarian and testicular organ weights were determined by necropsy 14 days after the injection. All serum samples from ovarian cancer patients and healthy subjects were collected under informed consent and were purchased from Bioreclamation, Inc. The serum samples were diluted in buffer (DY995, R & D Systems) and pretreated overnight at 4° C. with 4 M urea (Sigma) to dissociate any protein bound to activin-A. The samples were then transferred to 96 well plates pre-coated with an activin-A monoclonal antibody. After 2 hr incubation at room temperature and a washing step (0.05% Tween 20 in DPBS), a biotin-labeled activin-A monoclonal antibody was added for 1 hr at room temperature. […] An acidic stopping solution (KPL) was added and the degree of enzymatic turnover of the substrate was determined by wavelength absorbance measurement at 450 nm. The absorbance measured is directly proportional to the concentration of activin-A present. A standard curve of absorbance versus activin-A concentration was used to determine the amount of Activin-A in the test sample. Serum activin-A levels in inh-KO mice were measured by using ELISA.

[1] = TOV-21G xenograft, hu-sActRIIB-Fc alone or with 5-FU: body weight; format: in vivo, mouse; conditions: TOV-21G tumor-bearing athymic nude mice
Description: In another experiment, athymic nude mice received TOV-21G xenografts in the abdominal flank. After 14 days, subcutaneous hu-sActRIIB-Fc was administered weekly alone or in combination with 5-FU.

[2] = tested on: VEGF, Ang-1, osteopontin, CD31 in TOV-21G tumors; assay: Immunostaining of angiogenesis factors and CD31 in TOV-21G xenograft tumor sections; format: in vivo, human; conditions: treated vs untreated sections
Description: TOV-21G xenograft. 5×10^6 TOV-21G ovarian cancer cells were implanted subcutaneously into individual female athymic nu/nu mice (Harlan). Treatment was initiated at day 12 after tumor implantation, when the average tumor volume reached approximately 150 mm^3. The mice received PBS, sActRIIB (30 mg/kg, SC, 1×/week) or activin-A antibody (30 mg/kg, SC, 2×/week). In a separate chemotherapy combination experiment, the mice were treated with PBS, sActRIIB (10 mg/kg, SC, 1×/week), 5-FU (50 mg/kg, IP, 3 cycles, 4 daily injections per cycle) or sActRIIB and 5-FU combination at the same doses above. Zinc-formalin fixed paraffin tumor tissue sections of 4 μm in thickness were prepared. The sections were subjected to antigen retrieval by microwave 3 min in Unmask solution (Vector H-3300) followed by incubation in 10 μg/ml Proteinase-K for 20 min and in 1% H2O2 in dH2O for 10 min at room temperature. The sections were further incubated in 0.1% Tween-20 in PBS for 3 min to permeabilize the cell membrane and in goat serum for 30 min to block non-specific binding. The sections were then incubated at room temperature with specific primary antibody for 3 hours followed by incubation in biotinylated or fluorescently labeled secondary antibody. […] The immunostained tissue sections were analyzed and photographed using a Nikon Eclipse 90i microscope equipped with DS-Ril camera. […]

caspase-3 = assay: Active caspase-3 immunostaining of inh-KO tumor sections; format: in vivo, mouse; conditions: ovarian and testicular tissue sections, regions of residual tumor cells
Description: Zinc-formalin fixed paraffin tumor tissue sections of 4 μm in thickness were prepared. The sections were subjected to antigen retrieval by microwave 3 min in Unmask solution (Vector H-3300) followed by incubation in 10 μg/ml Proteinase-K for 20 min and in 1% H2O2 in dH2O for 10 min at room temperature. The sections were further incubated in 0.1% Tween-20 in PBS for 3 min to permeabilize the cell membrane and in goat serum for 30 min to block non-specific binding. The sections were then incubated at room temperature with specific primary antibody for 3 hours followed by incubation in biotinylated or fluorescently labeled secondary antibody. Substrate developed in Vector SG kit (SK-4700) or DAB and nuclear-counterstained in Vector Fast Red (H-3403) or in hematoxylin. The immunostained tissue sections were analyzed and photographed using a Nikon Eclipse 90i microscope equipped with DS-Ril camera. The primary antibodies used and their dilutions are as follows: VEGF (BD Pharmingen 550549) 1:20 or VEGF (Abcam ab46154) 1:100, active caspase-3 (Abcam ab32042) 1:50, Ang-1 (Abcam ab8451) 1:500, osteopontin (Abcam ab8448) 1:200, CD-31 (Abcam ab56299) 1:100, E-cadherin (Abcam ab76319) 1:80. For immunofluorescence staining, FITC-conjugated secondary antibody (Invitrogen) was added at 1:50 dilution in PBS and incubated for 30 min. Cell nuclei were counterstained with Vectashield PE (Vector).

B1: sActRIIB: extracellular domain of human activin type-2B receptor fused to IgG2 Fc; full length SEQ ID NO: 21 (Table 9) (protein, listed as Homo sapiens)
chain: ETRWCIYYNANWELERTNQSGLERCEGEQDKRLHCYASWRNSSGTIELVKKGCWLDDFNCYDRQECVATEENPQVYFCCCEGNFCNERFTHLPEAGGPEVTYEPPPTAPTGGGGSVECPPCPAPPVAGPSVFLFPPKPKDTLMISRTPEVTCVVVDVSHEDPEVQFNWYVDGVEVHNAKTKPREEQFNSTFRVVSVLTVVHQDWLNGKEYKCKVSNKGLPAPIEKTISKTKGQPREPQVYTLPPSREEMTKNQVSLTCLVKGFYPSDIAVEWESNGQPENNYKTTPPMLDSDGSFFLYSKLTVDKSRWQQGNVFSCSVMHEALHNHYTQKSLSLSPGK
phospho-Smad2 in the tumor tissues (Smad2 signaling): eliminated this increase in phospho-Smad2 | duration of activin-A-neutralizing effect (activin-A): persisted throughout the 14-day study period | serum activin-A levels (activin-A; within one day after administration): reduced the elevated activin-A in the inh-KO mice to normal control levels | body weight increase during the experiment [1]: 26% | CD31 immunostaining (newly formed microvessels) [2]: lack of such new microvessels | VEGF and Ang-1 immunostaining in tumor sections [2]: virtually none in the sActRIIB-treated sections | active caspase-3 immunostaining (caspase-3): strong immunostaining of active caspase-3

Source: patent US12383572B2, “Administration of an anti-activin-a compound to a subject” (AMGEN INC., priority 2013, dated 2025)
